Assay results from patent US20250368754A1 (KANAPH THERAPEUTICS, published 2025).

T1: recombinant human herpes virus entry mediator (HVEM) (human, UniProt Q92956 39-202)
T1 construct: neither construct is described; also called human HVEM; recombinant human HVEM protein (R&D systems)
T1 sequence (looked up): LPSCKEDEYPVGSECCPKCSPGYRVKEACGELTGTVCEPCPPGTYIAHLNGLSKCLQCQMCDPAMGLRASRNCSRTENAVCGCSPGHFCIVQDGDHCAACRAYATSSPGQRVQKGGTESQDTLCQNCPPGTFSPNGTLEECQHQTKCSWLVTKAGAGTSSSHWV

T2: human DcR3 (human, UniProt O95407 30-300)
T2 construct: also called LIGHT receptor DcR3
T2 sequence (looked up): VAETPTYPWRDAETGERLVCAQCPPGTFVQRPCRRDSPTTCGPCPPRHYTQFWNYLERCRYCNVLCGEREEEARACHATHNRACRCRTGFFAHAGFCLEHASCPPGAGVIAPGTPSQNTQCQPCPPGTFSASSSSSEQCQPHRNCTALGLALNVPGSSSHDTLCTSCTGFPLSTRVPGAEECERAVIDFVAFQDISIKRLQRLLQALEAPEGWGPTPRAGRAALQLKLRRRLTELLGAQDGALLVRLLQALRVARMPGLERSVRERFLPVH

T3: recombinant human FAP (human, UniProt Q12884 26-760)
T3 construct: also called rhFAP
T3 sequence (looked up): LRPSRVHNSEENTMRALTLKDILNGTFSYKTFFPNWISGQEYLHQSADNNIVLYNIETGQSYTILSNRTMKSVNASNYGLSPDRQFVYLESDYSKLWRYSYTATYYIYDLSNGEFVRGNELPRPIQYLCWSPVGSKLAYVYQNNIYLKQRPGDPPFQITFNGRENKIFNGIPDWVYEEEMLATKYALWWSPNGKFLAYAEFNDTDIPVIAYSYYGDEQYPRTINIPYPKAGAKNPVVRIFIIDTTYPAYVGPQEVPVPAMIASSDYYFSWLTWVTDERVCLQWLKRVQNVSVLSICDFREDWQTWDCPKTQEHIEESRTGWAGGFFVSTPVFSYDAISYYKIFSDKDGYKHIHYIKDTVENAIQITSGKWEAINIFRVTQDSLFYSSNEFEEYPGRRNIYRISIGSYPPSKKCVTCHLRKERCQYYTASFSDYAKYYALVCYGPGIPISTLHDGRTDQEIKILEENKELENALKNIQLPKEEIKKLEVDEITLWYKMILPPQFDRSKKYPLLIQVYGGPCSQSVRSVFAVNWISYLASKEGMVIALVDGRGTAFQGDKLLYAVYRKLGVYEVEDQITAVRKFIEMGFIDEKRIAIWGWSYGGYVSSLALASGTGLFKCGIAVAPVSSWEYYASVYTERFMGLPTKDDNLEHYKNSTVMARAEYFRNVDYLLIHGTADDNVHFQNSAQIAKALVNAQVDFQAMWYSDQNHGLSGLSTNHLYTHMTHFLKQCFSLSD

B1: T3.04 (anti-hu FAP/hu scLIGHT3(GGGGS4), hu IgG1 DANG) (bispecific antibody)
heavy: QVQLVQSGAEVKKPGASVKVSCKTSRYTFTEYTIHWVRQAPGQRLEWIGGINPNNGIPNYNQKFKGRVTITVDTSASTAYMELSSLRSEDTAVYYCARRRIAYGYDEGHAMDYWGQGTLVTVSSASTKGPSVFPLAPSSKSTSGGTAALGCLVKDYFPEPVTVSWNSGALTSGVHTFPAVLQSSGLYSLSSVVTVPSSSLGTQTYICNVNHKPSNTKVDKKVEPKSCDKTHTCPPCPAPELLGGPSVFLFPPKPKDTLMISRTPEVTCVVVAVSHEDPEVKFNWYVDGVEVHNAKTKPREEQYGSTYRVVSVLTVLHQDWLNGKEYKCKVSNKALPAPIEKTISKAKGQPREPQVYTLPPSRDELTKNQVSLWCLVKGFYPSDIAVEWESNGQPENNYKTTPPVLDSDGSFFLYSKLTVDKSRWQQGNVFSCSVMHEALHNHYTQKSLSLSPGK
light: not shown
chain: not shown
notes: Knob-into-hole; LIGHT homotrimer with (GGGGS)4 linkers
B2: T3.07 (anti-hu FAP-hu scLIGHT2/anti-hu FAP-hu LIGHT, hu IgG1 DANG (2 + 1)) (bispecific antibody)
heavy 1: QVQLVQSGAEVKKPGASVKVSCKTSRYTFTEYTIHWVRQAPGQRLEWIGGINPNNGIPNYNQKFKGRVTITVDTSASTAYMELSSLRSEDTAVYYCARRRIAYGYDEGHAMDYWGQGTLVTVSSASTKGPSVFPLAPSSKSTSGGTAALGCLVKDYFPEPVTVSWNSGALTSGVHTFPAVLQSSGLYSLSSVVTVPSSSLGTQTYICNVNHKPSNTKVDKKVEPKSCDKTHTCPPCPAPELLGGPSVFLFPPKPKDTLMISRTPEVTCVVVAVSHEDPEVKFNWYVDGVEVHNAKTKPREEQYGSTYRVVSVLTVLHQDWLNGKEYKCKVSNKALPAPIEKTISKAKGQPREPQVYTLPPSRDELTKNQVSLWCLVKGFYPSDIAVEWESNGQPENNYKTTPPVLDSDGSFFLYSKLTVDKSRWQQGNVFSCSVMHEALHNHYTQKSLSLSPGKGGGGSGGGGSEVNPAAHLTGANSSLTGSGGPLLWETQLGLAFLRGLSYHDGALVVTKAGYYYIYSKVQLGGVGCPLGLASTITHGLYKRTPRYPEELELLVSQQSPCGRATSSSRVWWDSSFLGGVVHLEAGEKVVVRVLDERLVRLRDGTRSYFGAFMVGGSGEVNPAAHLTGANSSLTGSGGPLLWETQLGLAFLRGLSYHDGALVVTKAGYYYIYSKVQLGGVGCPLGLASTITHGLYKRTPRYPEELELLVSQQSPCGRATSSSRVWWDSSFLGGVVHLEAGEKVVVRVLDERLVRLRDGTRSYFGAFMV
heavy 2: not shown
light: not shown
notes: Knob-into-hole; two anti-FAP arms, LIGHT dimer and LIGHT monomer at the C-termini of the two heavy chains; two copies of the light chain follow from the (2 + 1) format

What was measured:
human LTβR on A375 cells [1] = biological target: T4, human LTβR on A375 cells (human, UniProt P36941 31-435); test: flow cytometry on A375 cells, serial dilutions, anti-human IgG detection, MFI against TMEkine [nM]
T4 construct: whole, on cells; Endogenous receptor of a human cell line; also called LTβR expressing A375 cells; LTβR expressing cell line
T4 sequence (P36941 31-435): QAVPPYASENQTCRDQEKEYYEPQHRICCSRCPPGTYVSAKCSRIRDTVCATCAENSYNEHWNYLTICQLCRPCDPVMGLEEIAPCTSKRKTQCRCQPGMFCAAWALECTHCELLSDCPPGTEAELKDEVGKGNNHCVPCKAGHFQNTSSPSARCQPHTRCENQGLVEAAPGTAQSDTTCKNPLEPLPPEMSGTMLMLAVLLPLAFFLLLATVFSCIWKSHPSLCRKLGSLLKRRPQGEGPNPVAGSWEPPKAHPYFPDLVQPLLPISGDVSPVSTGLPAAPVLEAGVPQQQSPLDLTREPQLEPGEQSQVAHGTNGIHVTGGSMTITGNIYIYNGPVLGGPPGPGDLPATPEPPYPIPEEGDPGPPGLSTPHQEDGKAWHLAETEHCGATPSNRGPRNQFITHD
Experimental: (§1) Specifically, the A375 cell line was prepared by suspending in a FACS buffer solution at 1×10⁵ cells/100 μL, and treated with 100 μL each of T3.01, T3.07, T3.04, and T3.18 prepared by suspending at 500 nM and diluting by serial dilution. The cells were washed twice with a FACS buffer solution. The cells were stained with an anti-human IgG antibody (Biolegend). The expression ratio of the stained cells was measured using BD LSR and analyzed using FlowJo software.

[2] = biological target: T1, recombinant human herpes virus entry …; test: sandwich ELISA: plate coated with recombinant human HVEM 1 ug/mL, fusion protein from 1 nM in serial dilution, detected with biotinylated recombinant human FAP and streptavidin conjugate, OD 450 nm
Experimental: Considering that LIGHT of the fusion protein must bind to the herpes virus entry mediator (HVEM) for the action, it was confirmed that T3.01 binds to the recombinant human HVEM, as follows: [0370] (i) The recombinant human HVEM protein (R&D systems) was suspended at 1 μg/mL, dispensed in a 96-well immune plate, and treated for 24 hours. [0371] (ii) The wells were washed with a wash solution, and then blocking was performed for 1 hour with 1% BSA (bovine serum albumin, Sigma) solution. [0372] (iii) The wells were washed with a wash solution, and then T3.01, T3.14, T3.16, T3.17, T3.18 and T3.10, or T3.05, T3.06, T3.04, T3.14 and T3.10 were suspended at 1 nM and diluted by serial dilution. The wells were treated with the diluted T3.01, T3.14, T3.16, T3.17, T3.18 and T3.10, or T3.05, T3.06, T3.04, T3.14 and T3.10 for 2 hours. [0373] (iv) The wells were washed with a wash solution, and then treated with the human recombinant FAP-biotin diluted at 0.5 μg/mL for 2 hours. [0374] (v) The wells were washed with a wash solution, and then treated with streptavidin-RP for 20 minutes. [0375] (vi) The wells were washed with a wash solution, and then treated with a substrate solution for 20 minutes. [0376] (vii) The wells were treated with a stop solution, and the absorbance was measured at 450 nm.

human LTβR on A375 cells [3] = biological target: T4, human LTβR on A375 cells; test: flow cytometry on A375 cells, serial dilution from 500 nM, anti-human IgG detection
Experimental: as §1

human LTβR on A375 cells [4] = biological target: T4, human LTβR on A375 cells; test: cell-based or functional assay
[5] = biological target: T5, recombinant human lymphotoxin beta receptor (LTβR) (human, UniProt P36941 28-227, limits assumed); test: SPR, human LTβR immobilised on CM5, fusion protein as analyte, 1:1 binding model
T5 construct: neither construct is described; also called human LTβR; recombinant human LTβR protein
T5 sequence (P36941 28-227 limits assumed): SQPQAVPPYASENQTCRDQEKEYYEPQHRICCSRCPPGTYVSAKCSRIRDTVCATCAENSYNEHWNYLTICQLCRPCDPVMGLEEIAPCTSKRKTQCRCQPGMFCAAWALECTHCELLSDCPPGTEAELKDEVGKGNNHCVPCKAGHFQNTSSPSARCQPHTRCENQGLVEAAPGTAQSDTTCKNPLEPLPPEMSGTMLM
Experimental: Specifically, the surface of the CM5 chip was activated with a 1:1 mixture of […], and 5 μg/mL of human LTβR was immobilized for 60 seconds at a rate of 10 μL/min. The remaining active ester groups were blocked with 1 M ethanolamine. […] The diluted fusion proteins were reacted at a rate of 30 μL/min. The association and dissociation times were 180 seconds and 400 seconds, respectively. After the dissociation step, stabilization was performed for 60 seconds, and then the regeneration step was performed for 30 seconds with a 10 mM glycine pH 1.5 solution at a rate of 30 μL/min.

human DcR3 = biological target: T2, human DcR3; test: SPR, human DcR3 immobilised on CM5, fusion protein as analyte, 1:1 binding model
Experimental: (§2) Specifically, the surface of the CM5 chip was activated with a 1:1 mixture of […], and 5 to 6 μg/mL of human DcR3 was immobilized for 60 seconds at a rate of 10 μL/min. The remaining active ester groups were blocked with 1 M ethanolamine. T3.01, T3.07, T3.09, T3.14, and T3.18 were each diluted to 50 nM or 200 nM in 1×HBS-EP+buffer solution and diluted by serial dilution. The diluted fusion proteins were reacted at a rate of 30 μL/min. The association and dissociation times were 180 seconds and 400 seconds, respectively. After the dissociation step, stabilization was performed for 60 seconds, and then the regeneration step was performed for 30 seconds with a 10 mM glycine pH 1.5 solution at a rate of 30 μL/min.

recombinant human FAP = biological target: T3, recombinant human FAP; test: SPR, fusion protein captured by anti-human IgG (Fc) on CM5, recombinant human FAP as analyte, 1:1 binding model
Experimental: Specifically, the surface of the CM5 chip was activated with a 1:1 mixture of […] NHS (N-hydroxysuccinimide) and 200 nM EDC (1-ethyl-3-(3-dimethylaminopropyl)carbodiimide), and 20 μg/mL of anti-human IgG (Fc) antibody was immobilized for 400 seconds at a rate of 10 μL/min. The remaining active ester groups were blocked with 1 M ethanolamine. T3.01, T3.07, and T3.14 were diluted to 2 μg/mL, 1 μg/mL, and 2 μg/mL, respectively, and reacted on the CM5 chip immobilized with the anti-human IgG (Fc) antibody. The recombinant human FAP was diluted to 50 nM or 100 nM in 1×HBS-EP+buffer solution and diluted by serial dilution. The diluted recombinant human FAP was reacted at a rate of 30 μL/min. The association and dissociation times were 180 seconds and 400 seconds, respectively. After the dissociation step, stabilization was performed for 60 seconds, and then the regeneration step was performed for 30 seconds with a 10 mM glycine pH 1.5 solution at a rate of 30 μL/min.

[6] = biological target: T1, recombinant human herpes virus entry …; test: SPR, human HVEM immobilised on CM5, fusion protein as analyte, 1:1 binding model
Experimental: as §2, with “HVEM” for “DcR3”, “100” for “50 nM or 200”

Row | Binder | EC50 (read off the curve) (human LTβR on A375 cells [1]) [nM] | binding result [2] | percent of cells bound (human LTβR on A375 cells [3]) [%] | IL-8 secretion of A375 cells, EC50 (FIG. 15a) (human LTβR on A375 cells [4]) [nM] | Kd [5] [nM] | koff [5] [s⁻¹] | kon [5] [M⁻¹ s⁻¹] | Kd (human DcR3) [nM] | koff (human DcR3) [s⁻¹] | kon (human DcR3) [M⁻¹ s⁻¹] | Kd (recombinant human FAP) [nM] | koff (recombinant human FAP) [s⁻¹] | kon (recombinant human FAP) [M⁻¹ s⁻¹] | Kd [6] [nM] | koff [6] [s⁻¹] | kon [6] [M⁻¹ s⁻¹] | IL-8 secretion of A375 cells, EC50 (FIG. 15b) (human LTβR on A375 cells [4]) [nM]
1 | B1 | ~4 | binds | ≥ 96 | 0.0604 |  |  |  |  |  |  |  |  |  |  |  |  | 
2 | B2 |  |  | ≥ 96 |  | 0.935 | 0.000382 | 409000 | 0.598 | 0.000195 | 327000 | 0.303 | 0.000118 | 391000 | 3.99 | 0.00114 | 285000 | 0.0477
